Patent US20100158926A1
Numbering of substitutions follows the chain as printed. “And” between values parts separate entries of the source, which are not always exact repeats. Equal values may be shown once. Blank lines part the entries; values can stand above or below the binder they belong to.

Key:
[1] = molecular target: human ErbB2, full length, on cells (B300.19/hErbB2 clone #44; MCF7; BT474; SKBR3) (human)
[2] = molecular target: human ErbB2 ECD-myc/His fusion protein (human); assay: limited antigen ELISA, 31 ng/ml antigen coated, supernatant 1:25, OD 450 nm
[3] = molecular target: human ErbB2, full length, on cells (B300.19/hErbB2 clone #44; MCF7; BT474; SKBR3) (human); remark: listed apart in the source
[4] = molecular target: human ErbB2 ECD-myc/His fusion protein (human); assay: SPR, medium resolution Biacore 2000; mAb captured on goat anti-human IgG, ErbB2(ECD)-cMyc/His injected; 1:1 fit
[5] = molecular target: human ErbB2, full length, on cells (B300.19/hErbB2 clone #44; MCF7; BT474; SKBR3) (human); remark: listed apart in the source
[6] = molecular target: human ErbB2, full length, on cells (B300.19/hErbB2 clone #44; MCF7; BT474; SKBR3) (human); remark: listed apart in the source
[7] = molecular target: human ErbB2, full length, on cells (B300.19/hErbB2 clone #44; MCF7; BT474; SKBR3) (human); remark: listed apart in the source
[8] = molecular target: human ErbB2, full length, on cells (B300.19/hErbB2 clone #44; MCF7; BT474; SKBR3) (human); remark: listed apart in the source
[9] = molecular target: human ErbB2 ECD-myc/His fusion protein (human); assay: SPR, high resolution Biacore T100; mAb captured on goat anti-human IgG, hHer-2(ECD)cMyc injected; 1:1 fit

B2: monoclonal antibody 1.100.1 (antibody, V domains shown)
VH: QLQLQESGPGLVKPSETLSLTCTVSGGFISSSSYYWGWIRQPPGKGLEWIGTIYYSGTTYYNSSLKSRVTISVDTSQNQFSLKLSSVTAADTAVYYCARHHWVFDYWGQGTLVTVSS
VL: EVVLTQSPDFQSVTPKEKITITCRASQIIGTSLHWYQKKPDQSPKLLIKYASQSFSGVPSRFSGSGSGTEFTLTINSLEAEDTATYYCHQSTNLPWTFGQGTKVEIK
N1 % Inhibition @40 µg/ml, BT474 cell proliferation [1]: 35% | N1 EC50 (ng/ml), inhibition of BT474 cell proliferation [1]: 169 ng/mL | N2 EC50 (ng/ml), inhibition of BT474 cell proliferation [1]: 91.1 ng/mL | LA at 31 ng/ml [2]: 3.54 OD | EC50 (ng/ml) n1, inhibition of Heregulin-induced ErbB2 phosphorylation in MCF7 cells [3]: 39.9 ng/mL | EC50 (ng/ml) n2, inhibition of Heregulin-induced ErbB2 phosphorylation in MCF7 cells [3]: 33.7 ng/mL | Kd [4]: 2.9 nM | koff [4]: 0.000301 s⁻¹ | kon [4]: 104000 M⁻¹ s⁻¹ | % Inhibition @10 µg/ml, Heregulin-induced MCF7 cell proliferation [5]: 95% | EC50 (ng/ml), inhibition of Heregulin-induced MCF7 cell proliferation [5]: 2040 ng/mL | 24 hr pTyr inhibition % (line 1*100) [6]: 95% | % inhibition @36 µg/ml, SKBR3 cell proliferation [7]: 54% | EC50 (ng/ml), inhibition of SKBR3 cell proliferation [7]: 61.3 ng/mL | % Inhibition @10 µg/ml (n1), ErbB2 phosphorylation in BT474 cells at 48 hours [8]: 37%

B4: monoclonal antibody 1.43 (antibody, V domains shown)
VH: QVQLVESGGGLVKPGGSLRLSCAASGFTFSDYYMNWIRQAPGKGLEWVSYISSSGSIIYYADSVKGRFTISRDNAKNSLYLQMNSLRAEDTAVYYCAREGRIAARGMDVWGQGTTVTVSS
VL: DIQMTQSPSSLSASVGDRVSITCRPSQSFSRYINWYQQKPGKAPKLLIHAASSLVGGVPSRFSGSGSGTDFTLTISSLQPEDFATYYCQQTYSNPPITFGQGTRLEMK
LA at 31 ng/ml [2]: 3.2 OD and 3.57 OD | EC50 (ng/ml) n1, inhibition of Heregulin-induced ErbB2 phosphorylation in MCF7 cells [3]: > 10000 ng/mL | EC50 (ng/ml) n2, inhibition of Heregulin-induced ErbB2 phosphorylation in MCF7 cells [3]: > 10000 ng/mL | % Inhibition @10 µg/ml, Heregulin-induced MCF7 cell proliferation [5]: 53% | EC50 (ng/ml), inhibition of Heregulin-induced MCF7 cell proliferation [5]: 10000 ng/mL | 24 hr pTyr inhibition % (line 1*41) [6]: 86% | 24 hr pTyr inhibition % (line 1*43) [6]: 82%

B5: monoclonal antibody 1.18.1 (antibody, V domains shown)
VH: QVQLVESGGGVVQPGRSLRLSCAASGFTFSSYGMHWVRQAPGKGLEWVAVIWYDRSNKYYADSVKGRFTISRDNSKNTLYLQMDSLRAEDTAVYYCAGGRSRGAFDYWGQGTLVTVSS
VL: DIQMTQSPSSLSASVGDRVTITCRASQGIRNYLAWFQQKPGKAPKSLIYAASSLQSGVPSTFSGSGSGTHFTLTISSLQPEDFASYFCQQYEIYPLTFGGGTKVEIK
N1 % Inhibition @40 µg/ml, BT474 cell proliferation [1]: 34% | N1 EC50 (ng/ml), inhibition of BT474 cell proliferation [1]: 38.1 ng/mL | N2 EC50 (ng/ml), inhibition of BT474 cell proliferation [1]: 28.2 ng/mL | LA at 31 ng/ml [2]: 3.03 OD | EC50 (ng/ml) n1, inhibition of Heregulin-induced ErbB2 phosphorylation in MCF7 cells [3]: 4.2 ng/mL | EC50 (ng/ml) n2, inhibition of Heregulin-induced ErbB2 phosphorylation in MCF7 cells [3]: 10.8 ng/mL | Kd [4]: 3 nM | koff [4]: 0.000302 s⁻¹ | kon [4]: 100000 M⁻¹ s⁻¹ | % Inhibition @10 µg/ml, Heregulin-induced MCF7 cell proliferation [5]: 94% | EC50 (ng/ml), inhibition of Heregulin-induced MCF7 cell proliferation [5]: 415 ng/mL | 24 hr pTyr inhibition % (line 1*18) [6]: 96% | % inhibition @36 µg/ml, SKBR3 cell proliferation [7]: 46% | EC50 (ng/ml), inhibition of SKBR3 cell proliferation [7]: 26.3 ng/mL | % Inhibition @10 µg/ml (n1), ErbB2 phosphorylation in BT474 cells at 48 hours [8]: 24%

Further binders by falling Kd [4], results first:

N1 % Inhibition @40 µg/ml, BT474 cell proliferation [1]: 38% | N1 EC50 (ng/ml), inhibition of BT474 cell proliferation [1]: 136 ng/mL | N2 EC50 (ng/ml), inhibition of BT474 cell proliferation [1]: 63 ng/mL | LA at 31 ng/ml [2]: 3.99 OD | EC50 (ng/ml) n1, inhibition of Heregulin-induced ErbB2 phosphorylation in MCF7 cells [3]: 33.7 ng/mL | EC50 (ng/ml) n2, inhibition of Heregulin-induced ErbB2 phosphorylation in MCF7 cells [3]: 22.9 ng/mL | Kd [4]: 2.5 nM | koff [4]: 0.000256 s⁻¹ | kon [4]: 102000 M⁻¹ s⁻¹ | % Inhibition @10 µg/ml, Heregulin-induced MCF7 cell proliferation [5]: 96% | EC50 (ng/ml), inhibition of Heregulin-induced MCF7 cell proliferation [5]: 640 ng/mL | 24 hr pTyr inhibition % (line 1*14) [6]: 100% | % inhibition @36 µg/ml, SKBR3 cell proliferation [7]: 52% | EC50 (ng/ml), inhibition of SKBR3 cell proliferation [7]: 35.7 ng/mL | % Inhibition @10 µg/ml (n1), ErbB2 phosphorylation in BT474 cells at 48 hours [8]: 37%
B1: monoclonal antibody 1.14.1 (antibody, V domains shown)
VH: B2 VH with G27D, F28S, S32F, S33I, T58S, S63P, Q77K, S85R, L112Q
VL: DIVLTQFPDFQSVTPKEKVTITCRASQVIGSSLHWYQQKPDQSPKLLIKYASQSFSGVPSRFSGSGSGTDFTLTINSLEVEDAATYYCHQSTILPWTFGQGTKVEVK

N1 % Inhibition @40 µg/ml, BT474 cell proliferation [1]: 29% | N1 EC50 (ng/ml), inhibition of BT474 cell proliferation [1]: 156 ng/mL | N2 EC50 (ng/ml), inhibition of BT474 cell proliferation [1]: 42.3 ng/mL | LA at 31 ng/ml [2]: 2.57 OD | Kd [9]: 13.4 nM | koff [9]: 0.000214 s⁻¹ | kon [9]: 16000 M⁻¹ s⁻¹ | EC50 (ng/ml) n1, inhibition of Heregulin-induced ErbB2 phosphorylation in MCF7 cells [3]: 46.9 ng/mL | EC50 (ng/ml) n2, inhibition of Heregulin-induced ErbB2 phosphorylation in MCF7 cells [3]: 26.3 ng/mL | Kd [4]: 2 nM | koff [4]: 0.000236 s⁻¹ | kon [4]: 115000 M⁻¹ s⁻¹ | % Inhibition @10 µg/ml, Heregulin-induced MCF7 cell proliferation [5]: 89% | EC50 (ng/ml), inhibition of Heregulin-induced MCF7 cell proliferation [5]: 479 ng/mL | 24 hr pTyr inhibition % (line 1*39) [6]: 99% | % inhibition @36 µg/ml, SKBR3 cell proliferation [7]: 41% | EC50 (ng/ml), inhibition of SKBR3 cell proliferation [7]: 68.9 ng/mL | % Inhibition @10 µg/ml (n1), ErbB2 phosphorylation in BT474 cells at 48 hours [8]: 37%
B3: monoclonal antibody 1.39 (antibody, V domains shown)
VH: B2 VH with F28S, S33T, T58S, S63P, Q77K, S85N
VL: B1 VL with D1E, F7S, Q11L, V28I, I75L, V80A, V106I
